Paper PMC9620234, “Design, Synthesis, and Biochemical and Biological Evaluation of Novel 7-Deazapurine Cyclic Dinucleotide Analogues as STING Receptor Agonists” (Journal of Medicinal Chemistry, 2022)

Target: the molecule itself
Test: crystal structure; wt hSTING (140-379) co-crystallised with CDN 5f, 5k, 5l or 5m; sitting drop vapor diffusion, 18 °C; chains A/B with one ligand molecule

B1: human wild-type STING truncated to residues 140–379 (domain or fragment, UniProt Q86WV6 140-379, looked up)
chain: APAEISAVCEKGNFNVAHGLAWSYYIGYLRLILPELQARIRTYNQHYNNLLRGAVSQRLYILLPLDCGVPDNLSMADPNIRFLDKLPQQTGDHAGIKDRVYSNSIYELLENGQRAGTCVLEYATPLQTLFAMSQYSQAGFSREDRLEQAKLFCRTLEDILADAPESQNNCRLIAYQEPADDSSFSLSQEVLRHLRQEEKEEVTVGSLKTSAVPSTSTMSQEPELLISGMEKPLPLRTDFS
notes: stimulator of interferon genes (STING), human, wild-type allele, UniProt Q86WV6, residues 140-379; Each crystal also holds one cyclic dinucleotide ligand (5f, 5k, 5l or 5m) in the site between the two chains; also called wt hSTING; stimulator of interferon genes; source: E. coli BL21 (DE3), purified (Ni-NTA, Ulp1 protease digestion, SEC, HiTrap Capto S)
Q: Does B1 bind?
A: binds
